How the values were obtained:
[1] = Release kinetics of bone growth factor and antimicrobial peptide from cement pellets into culture medium; assay type: physicochemical; conditions: for cumulative release of TGFβ, of the original amount mixed in the cement: ELISA
Protocol: The release kinetics of the bone growth factor and of the antimicrobial peptide from bone substitute have been determined as follows:
In the release experiments the cement powder (40 mg) was mixed on a glass plate with TGFβ-containing liquid (13.3 μl), giving a paste of 53 mg cement with 133 ng TGFβ and 250 μg DHVAR 5. After 1 min of mixing the cement paste was applied into a Teflon mould with a diameter of 5 mm and measuring 1 mm in height. After 2 min the cement pellets were removed from the mould and added to the wells of 12-well culture plates (Costar, Cambridge, Mass., USA). Complete culture medium (Dulbecco's modified Eagle's medium (DMEM, Gibco-BRL Life Technologies Ltd. Paisley, UK) with 10% fetal bovine serum (FBS; Gibco) was added at 1 ml per well, to wells containing a TGFβ DHVAR5 enriched cement pellet as described above. The multiwell plates were incubated at 37° C. in 5% CO2 and 95% humidity. Culture medium was renewed completely at suitable time intervals (0.5, 1, 2, 4, 24, 48 hr and 1, 2, 4 and 8 weeks), and the medium samples were stored at −20° C. until used for TGFβ and DHVAR 5 determination. TGFβ was determined in the collected culture medium samples using a commercially available enzyme-linked immunosorbant assay (ELISA) (Promega, Madison, Wis., USA). A few cement pellets were crushed in the well with a mortar at 48 hr, after removal of the medium. The fragments were incubated in fresh medium for 1 hr; medium was then removed and stored for DHVAR5 and TGFβ determination. The amount of DHVAR5 released was determined by subjecting medium samples to capillary zone electrophoresis. Biological activity against S. aureus was confirmed in a standard killing assay. TGFβ was assayed by standard immunological analysis and by examination of the potency to promote cell growth as described above. The release of TGFβ from a cement pellet that incorporated TGFβ and DHVAR5 (133 ng TGFβ and 250 μg DHVAR 5 in 53 mg cement) at the time of setting of the cement, is shown in FIGS. 3 and 4 respectively. A rapid TGFβ release was found in the first 4 hr followed by a much slower release. The cumulative release found after 4 hr was 0.5% of the original amount of TGFβ mixed in the cement and increased to 1% after 48 hr. Release of TGFβ continued slowly hereafter, with maximal 0.1% released during the next 8 weeks (data not shown).
Similar results were obtained with peptides of Seq. ID Nos. 1-3, 5-7.

S. aureus = experiment: Standard killing assay of released peptide; assay type: cell-based; conditions: medium samples from release experiment
Protocol: In the release experiments the cement powder (40 mg) was mixed on a glass plate with TGFβ-containing liquid (13.3 μl), giving a paste of 53 mg cement with 133 ng TGFβ and 250 μg DHVAR 5. After 1 min of mixing the cement paste was applied into a Teflon mould with a diameter of 5 mm and measuring 1 mm in height. After 2 min the cement pellets were removed from the mould and added to the wells of 12-well culture plates (Costar, Cambridge, Mass., USA). Complete culture medium (Dulbecco's modified Eagle's medium (DMEM, Gibco-BRL Life Technologies Ltd. Paisley, UK) with 10% fetal bovine serum (FBS; Gibco) was added at 1 ml per well, to wells containing a TGFβ DHVAR5 enriched cement pellet as described above. The multiwell plates were incubated at 37° C. in 5% CO2 and 95% humidity. Culture medium was renewed completely at suitable time intervals (0.5, 1, 2, 4, 24, 48 hr and 1, 2, 4 and 8 weeks), and the medium samples were stored at −20° C. until used for TGFβ and DHVAR 5 determination. TGFβ was determined in the collected culture medium samples using a commercially available enzyme-linked immunosorbant assay (ELISA) (Promega, Madison, Wis., USA). A few cement pellets were crushed in the well with a mortar at 48 hr, after removal of the medium. […] The amount of DHVAR5 released was determined by subjecting medium samples to capillary zone electrophoresis. […]

Substance: gentamicin [reference compound]
- release kinetics from cement ([1]; in a similar test): incomplete and slow release kinetics

Substance: LLLFLLKKRKKRKY [DHVAR-5, anti-microbial peptide, synthetic derivative based on histatin 5 carboxyterminal]
- Biological activity against S. aureus of released peptide (S. aureus): confirmed
- antimicrobial peptide released from the cement material ([1]; after 4 days): more than 80%
- release of DHVAR 5 from the cement material ([1]; within 48 hours, capillary zone electrophoresis, DMEM with 10% FBS, 37° C.): 70%

Substance: TGFβ
- cumulative release of TGFβ, of the original amount mixed in the cement ([1]; after 4 hr, cement pellet 133 ng TGFβ and 250 μg DHVAR 5 in 53 mg cement, DMEM with 10% FBS, 37° C.): 0.5%
- cumulative release of TGFβ, of the original amount mixed in the cement ([1]; after 48 hr, same pellet, DMEM with 10% FBS, 37° C.): 1%
- TGFβ released during the next 8 weeks ([1]; after the first 48 hr, maximal, data not shown): ≤ 0.1%
- TGFβ released within 1 hr after fragmentation ([1]; pellets fragmented at 48 hr, fresh medium 1 hr, data not shown): approximately 0.5%
